# Source: paper PMC11441081 (2024)
# Key:
# [1] = biological target: T1, EIV-HA protein (hemagglutinin of equine influenza virus H3N8), wild type (equine influenza virus (H3N8)); experiment: ELISA
# [2] = biological target: T1, EIV-HA protein (hemagglutinin of equine …); experiment: SPR
# [3] = biological target: T1, EIV-HA protein (hemagglutinin of equine …); experiment: SPR; remark: listed apart in the source
binder,measurement,setting,value
"H81 recombinant antibody (equine Ig (Fab)2 recombined with homo Ig Fc) (antibody, V domains shown) VH: QVQLKESGPGLVKPSQTLSLTCTVSGLSLSSDAVGWVRQAPGKGLEWVACIYGDESTYYNPALKSRAGITKDTSKSQVYLTLNSLTGEDTAVYYCAGLVYEYYAGTWTIVFELKYWGQGILVTVSS VL: QSLTQPASVSGTLGQTVTISCSGSSSNIGHRYSTVGWYQQIPGTAPKTLIYGSDKRASGVPDRFSGSKSGNTATLTISGLQAEDEADYYCGSYYYASSDSSGGAFGGGTHLTIA",EC50,[1],4.2 ng/mL
same,Kd,[2],10.1 nM
same,koff,[3],8.52e-05 s⁻¹
